Reference: article PMC9482650, “Quantitative fragmentomics allow affinity mapping of interactomes” (Nature Communications, 2022)

T1: CARD11, Q9BXL7
T1 sequence (Q9BXL7 662-765, limits assumed, looked up): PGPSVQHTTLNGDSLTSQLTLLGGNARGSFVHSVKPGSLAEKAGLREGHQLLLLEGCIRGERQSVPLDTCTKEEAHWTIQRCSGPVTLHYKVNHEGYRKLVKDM

T2: ARHGAP21, Q5T5U3
T2 sequence (Q5T5U3 45-169, limits assumed, looked up): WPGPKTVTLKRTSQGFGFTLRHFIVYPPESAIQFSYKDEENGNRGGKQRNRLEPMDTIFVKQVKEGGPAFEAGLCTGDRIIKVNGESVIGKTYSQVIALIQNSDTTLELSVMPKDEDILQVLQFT

T3: DVL3, Q92997
T3 sequence (Q92997 244-331, limits assumed, looked up): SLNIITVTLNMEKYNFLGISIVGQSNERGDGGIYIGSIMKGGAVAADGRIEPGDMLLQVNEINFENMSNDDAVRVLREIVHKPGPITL

T4: APBA3_1, O96018
T4 sequence (O96018 389-490, limits assumed, looked up): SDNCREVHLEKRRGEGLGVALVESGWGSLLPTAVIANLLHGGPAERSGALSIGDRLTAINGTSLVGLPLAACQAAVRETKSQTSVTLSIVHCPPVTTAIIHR

T5: MPDZ_10, O75970
T5 sequence (O75970 1624-1722, limits assumed, looked up): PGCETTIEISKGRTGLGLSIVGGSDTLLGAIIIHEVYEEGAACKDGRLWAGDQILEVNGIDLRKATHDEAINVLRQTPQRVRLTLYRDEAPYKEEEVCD

T6: RADIL, Q96JH8
T6 sequence (Q96JH8 971-1071, limits assumed, looked up): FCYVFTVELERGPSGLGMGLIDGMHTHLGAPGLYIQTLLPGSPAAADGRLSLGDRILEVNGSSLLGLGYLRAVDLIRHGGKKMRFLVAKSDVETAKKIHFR

T7: NHERF3_4, Q5T2W1
T7 sequence (Q5T2W1 373-468, limits assumed, looked up): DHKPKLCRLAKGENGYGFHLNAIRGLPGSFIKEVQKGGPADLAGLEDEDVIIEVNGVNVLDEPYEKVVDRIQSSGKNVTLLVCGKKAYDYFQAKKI

T8: MPP7, Q5T2T1
T8 sequence (Q5T2T1 134-230, limits assumed, looked up): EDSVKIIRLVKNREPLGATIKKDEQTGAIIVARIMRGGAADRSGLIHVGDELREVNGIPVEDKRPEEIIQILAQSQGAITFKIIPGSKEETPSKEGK


Experiments:
Test in all cases: holdup assay
Set-up in all cases: key: below the threshold = too weak to quantify, mostly under pKd 3.1 to 4
Settings in all cases: plain residues with an end cap or a label only (N-terminal biotin on a linker: ado-ado)
[1] = biological target: T1, CARD11, Q9BXL7
[2] = biological target: T2, ARHGAP21, Q5T5U3
[3] = biological target: Inadl_9, Q8NI35
Chain of Inadl_9, Q8NI35 (Q8NI35 1530-1615): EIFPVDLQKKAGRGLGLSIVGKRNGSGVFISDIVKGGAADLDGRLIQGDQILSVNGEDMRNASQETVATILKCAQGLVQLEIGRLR

[4] = biological target: NOS1, P29475
Chain of NOS1, P29475 (P29475 9-101): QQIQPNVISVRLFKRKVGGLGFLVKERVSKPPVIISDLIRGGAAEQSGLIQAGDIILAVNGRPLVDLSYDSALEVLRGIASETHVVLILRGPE

[5] = biological target: PTPN3, P26045
Chain of PTPN3, P26045 (P26045 505-587): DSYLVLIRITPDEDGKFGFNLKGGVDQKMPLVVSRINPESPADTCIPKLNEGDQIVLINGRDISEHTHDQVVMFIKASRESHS

[6] = biological target: MAGI2_2, Q86UL8
Chain of MAGI2_2, Q86UL8 (Q86UL8 410-522): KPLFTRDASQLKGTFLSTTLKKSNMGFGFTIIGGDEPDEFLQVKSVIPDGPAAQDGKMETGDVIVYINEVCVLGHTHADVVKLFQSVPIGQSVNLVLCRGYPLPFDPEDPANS

[7] = biological target: T3, DVL3, Q92997
[8] = biological target: ARHGEF12, Q9NZN5-2
Chain of ARHGEF12, Q9NZN5-2 (Q9NZN5 other isoform, or with tags, fused parts or gaps): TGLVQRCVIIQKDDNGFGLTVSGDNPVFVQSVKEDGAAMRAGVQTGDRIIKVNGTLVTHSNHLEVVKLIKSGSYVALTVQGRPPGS

[9] = biological target: T4, APBA3_1, O96018
[10] = biological target: FRMPD4, Q14CM0
Chain of FRMPD4, Q14CM0 (Q14CM0 67-160): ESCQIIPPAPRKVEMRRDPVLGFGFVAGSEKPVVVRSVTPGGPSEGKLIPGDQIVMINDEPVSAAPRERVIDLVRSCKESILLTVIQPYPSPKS

[11] = biological target: T5, MPDZ_10, O75970
[12] = biological target: MAGI2_4, Q86UL8
Chain of MAGI2_4, Q86UL8 (Q86UL8 772-865): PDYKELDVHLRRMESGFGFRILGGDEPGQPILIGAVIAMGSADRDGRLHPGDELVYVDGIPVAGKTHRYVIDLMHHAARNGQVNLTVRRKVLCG

[13] = biological target: T6, RADIL, Q96JH8
[14] = biological target: LNX1_1, Q8TBB1
Chain of LNX1_1, Q8TBB1 (Q8TBB1 261-371): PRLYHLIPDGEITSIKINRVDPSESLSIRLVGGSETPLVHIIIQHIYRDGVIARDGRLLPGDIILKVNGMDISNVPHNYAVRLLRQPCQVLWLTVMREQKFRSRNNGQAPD

[15] = biological target: GORASP1, Q9BQQ3
Chain of GORASP1, Q9BQQ3 (Q9BQQ3 1-208): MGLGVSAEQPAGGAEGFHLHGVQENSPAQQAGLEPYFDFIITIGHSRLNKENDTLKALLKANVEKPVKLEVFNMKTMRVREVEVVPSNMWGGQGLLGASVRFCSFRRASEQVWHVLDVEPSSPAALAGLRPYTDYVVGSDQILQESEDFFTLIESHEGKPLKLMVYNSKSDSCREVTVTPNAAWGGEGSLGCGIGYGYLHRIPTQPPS

[16] = biological target: MAGI3_2, Q5TCQ9
Chain of MAGI3_2, Q5TCQ9 (Q5TCQ9 398-503): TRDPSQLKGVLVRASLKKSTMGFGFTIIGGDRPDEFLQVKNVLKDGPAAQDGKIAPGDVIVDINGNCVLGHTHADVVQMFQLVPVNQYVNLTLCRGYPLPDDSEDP

[17] = biological target: T7, NHERF3_4, Q5T2W1
[18] = biological target: LDB3, O75112
Chain of LDB3, O75112 (O75112 1-94): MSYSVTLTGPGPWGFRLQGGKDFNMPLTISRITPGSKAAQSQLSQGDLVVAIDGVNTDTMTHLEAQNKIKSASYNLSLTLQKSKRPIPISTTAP

[19] = biological target: FRMPD2_3, Q68DX3
Chain of FRMPD2_3, Q68DX3 (Q68DX3 1073-1166): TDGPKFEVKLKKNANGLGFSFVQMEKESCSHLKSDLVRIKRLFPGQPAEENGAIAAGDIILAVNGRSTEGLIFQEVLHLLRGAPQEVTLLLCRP

[20] = biological target: T8, MPP7, Q5T2T1
[21] = biological target: DLG4_1, P78352
Chain of DLG4_1, P78352 (P78352 62-152): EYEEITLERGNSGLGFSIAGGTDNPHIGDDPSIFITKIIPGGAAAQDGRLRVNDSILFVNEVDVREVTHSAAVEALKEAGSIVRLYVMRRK

[22] = biological target: PDZRN4_1, Q6ZMN7
Chain of PDZRN4_1, Q6ZMN7 (Q6ZMN7 213-318): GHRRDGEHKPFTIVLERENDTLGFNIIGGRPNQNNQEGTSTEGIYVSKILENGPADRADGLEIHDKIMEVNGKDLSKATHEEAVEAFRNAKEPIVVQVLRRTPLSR

[23] = biological target: LNX1_2, Q8TBB1
Chain of LNX1_2, Q8TBB1 (Q8TBB1 371-470): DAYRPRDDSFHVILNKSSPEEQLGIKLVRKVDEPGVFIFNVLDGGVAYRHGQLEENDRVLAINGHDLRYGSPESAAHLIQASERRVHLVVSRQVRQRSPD

[24] = biological target: Inadl_6, Q8NI35
Chain of Inadl_6, Q8NI35 (Q8NI35 1058-1167): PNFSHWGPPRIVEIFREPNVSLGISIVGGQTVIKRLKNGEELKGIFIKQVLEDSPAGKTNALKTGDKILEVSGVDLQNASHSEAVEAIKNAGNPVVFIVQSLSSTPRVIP

[25] = biological target: DLG2_2, Q15700
Chain of DLG2_2, Q15700 (Q15700 189-283): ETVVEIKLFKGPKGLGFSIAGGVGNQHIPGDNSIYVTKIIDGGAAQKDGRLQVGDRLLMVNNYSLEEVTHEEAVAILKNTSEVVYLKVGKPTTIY

[26] = biological target: MAGI1_1, Q96QZ7
Chain of MAGI1_1, Q96QZ7 (Q96QZ7 1-106): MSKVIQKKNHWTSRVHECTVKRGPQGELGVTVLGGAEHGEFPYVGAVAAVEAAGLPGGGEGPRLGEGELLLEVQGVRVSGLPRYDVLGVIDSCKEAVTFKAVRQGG

[27] = biological target: SCRIB_3, Q14160
Chain of SCRIB_3, Q14160 (Q14160 999-1103): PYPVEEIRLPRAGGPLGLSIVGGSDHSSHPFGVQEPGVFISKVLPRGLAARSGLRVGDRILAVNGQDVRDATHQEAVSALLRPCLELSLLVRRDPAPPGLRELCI

[28] = biological target: Inadl_10, Q8NI35
Chain of Inadl_10, Q8NI35 (Q8NI35 1673-1763): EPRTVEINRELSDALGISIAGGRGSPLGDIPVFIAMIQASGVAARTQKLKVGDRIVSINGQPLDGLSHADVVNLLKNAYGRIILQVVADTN

[29] = biological target: GRIP2_5, Q9C0E4
Chain of GRIP2_5, Q9C0E4 (Q9C0E4 544-642): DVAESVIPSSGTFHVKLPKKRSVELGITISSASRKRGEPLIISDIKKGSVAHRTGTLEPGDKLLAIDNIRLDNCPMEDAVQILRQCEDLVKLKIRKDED

[30] = biological target: MAGI2_3, Q86UL8
Chain of MAGI2_3, Q86UL8 (Q86UL8 600-682): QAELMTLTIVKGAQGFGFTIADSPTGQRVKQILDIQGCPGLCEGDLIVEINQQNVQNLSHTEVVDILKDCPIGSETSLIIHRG

Row | Binder | pKd [1] | pKd [2] | pKd [3] | pKd [4] | pKd [5] | pKd [6] | pKd [7] | pKd [8] | pKd [9] | pKd [10] | pKd [11] | pKd [12] | pKd [13] | pKd [14] | pKd [15] | pKd [16] | pKd [17] | pKd [18] | pKd [19] | pKd [20] | also measured
1 | EGGKKRESEA [APPL1, Q9UKG1] | below the threshold | below the threshold | below the threshold | below the threshold | 4.14 | below the threshold | below the threshold | below the threshold | below the threshold | below the threshold | below the threshold | below the threshold | below the threshold | below the threshold | below the threshold | below the threshold | below the threshold | below the threshold | below the threshold | below the threshold | pKd [21]: below the threshold; pKd [22]: below the threshold; pKd [23]: below the threshold; pKd [24]: below the threshold; pKd [25]: below the threshold; pKd [26]: below the threshold; pKd [27]: 3.82; pKd [28]: below the threshold; pKd [29]: below the threshold; pKd [30]: below the threshold
2 | QLAEIAESGL [ITK, Q08881] | below the threshold | 3.87 | below the threshold | below the threshold | 4.89 | below the threshold | below the threshold | below the threshold | below the threshold | 3.71 | below the threshold | below the threshold | below the threshold | 3.9 | 3.53 | below the threshold | 3.54 | below the threshold | below the threshold | below the threshold | pKd [21]: below the threshold; pKd [22]: 3.91; pKd [23]: below the threshold; pKd [24]: below the threshold; pKd [25]: 3.57; pKd [26]: 3.62; pKd [27]: 4.16; pKd [28]: below the threshold; pKd [29]: 3.65; pKd [30]: 3.58
3 | VGIERETDVL [EZH1, Q92800] | below the threshold | 3.92 | below the threshold | below the threshold | 3.52 | below the threshold | below the threshold | below the threshold | below the threshold | 3.87 | below the threshold | below the threshold | below the threshold | below the threshold | below the threshold | 4 | below the threshold | below the threshold | below the threshold | below the threshold | pKd [21]: below the threshold; pKd [22]: below the threshold; pKd [23]: below the threshold; pKd [24]: below the threshold; pKd [25]: below the threshold; pKd [26]: below the threshold; pKd [27]: 3.58; pKd [28]: below the threshold; pKd [29]: below the threshold; pKd [30]: below the threshold
